Experimental data published in US20240156863A1 (MorphoSys, published 2024).

Molecular target: T1, Human CD19 (human, UniProt P15391 20-556)
T1 construct: Endogenous CD19 on the CD19+ cell lines Jeko (JeKo-1), Nalm-6 and Ly7; also called B-lymphocyte antigen CD19; B4
T1 sequence: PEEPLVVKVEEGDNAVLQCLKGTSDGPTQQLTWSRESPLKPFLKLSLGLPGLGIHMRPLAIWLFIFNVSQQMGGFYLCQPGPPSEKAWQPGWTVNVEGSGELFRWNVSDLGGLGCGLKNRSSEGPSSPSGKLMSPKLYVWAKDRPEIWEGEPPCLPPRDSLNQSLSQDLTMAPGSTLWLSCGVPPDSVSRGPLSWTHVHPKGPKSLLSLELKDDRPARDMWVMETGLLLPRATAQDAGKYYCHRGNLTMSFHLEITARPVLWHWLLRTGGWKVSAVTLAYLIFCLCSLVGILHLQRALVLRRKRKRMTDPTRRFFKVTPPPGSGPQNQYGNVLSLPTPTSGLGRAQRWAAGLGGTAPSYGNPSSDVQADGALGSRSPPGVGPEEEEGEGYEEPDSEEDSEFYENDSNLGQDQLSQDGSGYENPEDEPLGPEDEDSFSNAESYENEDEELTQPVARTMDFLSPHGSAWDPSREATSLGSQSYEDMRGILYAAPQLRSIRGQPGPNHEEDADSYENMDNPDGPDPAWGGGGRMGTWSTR
Test: Pre-incubation of CD19+ Nalm-6 or Jeko cells, then flow cytometry with FMC63 as competitor
Procedure: FIG. 2: Clone FMC63 (CD19 binding domain in CART19) and tafasitamab compete for CD19 binding. After 4 hours of treatment of Jeko cells with 2 or 0.5 mg/mL of tafasitamab, flow cytometry using the FMC63 anti-CD19 antibody was performed.
It was studied, whether the observed CART19 activity may be influenced by tafasitamab in case of a direct CD19 binding competition between tafasitamab and the CAR. To first test for such binding competition, the CD19+ cell lines Nalm-6 or Jeko were incubated with 2 or 0.5 mg/mL tafasitamab, to saturate the receptors. […] To investigate for any potential impact of such binding competition on CART19 cell effector functions, tafasitamab was incubated with target cells (CD19+ cell lines Jeko, Ly7 or Nalm-6) at increasing concentrations and then CART19 cells were added at different effector: target ratios (0.1:1 to 10:1), without other effector cells to the cell culture.

binding result: binds
B1: tafasitamab (antibody, human IgG1, kappa, V domains shown)
VH: EVQLVESGGGLVKPGGSLKLSCAASGYTFTSYVMHWVRQAPGKGLEWIGYINPYNDGTKYNEKFQGRVTISSDKSISTAYMELSSLRSEDTAMYYCARGTYYYGTRVFDYWGQGTLVTVSS
VL: DIVMTQSPATLSLSPGERATLSCRSSKSLQNVNGNTYLYWFQQKPGQSPQLLIYRMSNLNSGVPDRFSGSGSGTEFTLTISSLEPEDFAVYYCMQHLEYPITFGAGTKLEIKR
notes: Fc-enhanced, humanized monoclonal anti-CD19 antibody; also called MOR00208; MOR208
